B1: WDFY1 (parent)
chain: FWNIKQMWDTKTLGLRQHHCRKCG

Variants of: B1
Experiment: protein stability index of a GFP-peptide fusion (GPS, HEK-293T) (PSI 1-6); higher = more stable
Conditions: c terminus: a fixed tail appended
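Also: lentivirally expressed fusions sorted by FACS into six bins by GFP to DsRed ratio, PSI derived from sequencing read proportions per bin multiplied by bin number.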

Protein stability index of substitutions, site by site:
K5: W 2.11, C 1.79, H 2.03, P 2.17, V 1.69, D 2.27, A 1.97, G 1.96, E 2.43, L 1.07, N 2.28, M 1.87, Q 2.03
W2: A 2.24, R 2.82, N 2.46, S 1.62, K 2.29, F 2.55, L 2.47, Q 1.75, E 2.53, G 1.47, M 2.32, C 1.14, H 1.43, P 2.32, Y 2.74, V 2.71
M7: H 2.9, V 1.64, L 2.39, T 1.69, A 1.89, F 1.77, R 2.58, G 1.89, I 2.15, C 2.06, S 2.39, N 2.46, D 2.54
W8: T 2.52, F 1.67, Y 2.6, A 2.57, D 3.27, S 3.12, M 2.78, K 2.18, G 2.81, E 2.44, N 2.25, R 1.42, L 1.76, P 2.73
Q6: L 1.47, W 1.79, S 2.01, D 2.42, F 2.36, E 2.37, N 2.22, Y 1.92, T 2.04, K 2.13, M 2.06, G 2.55, A 1.9, P 1.97, V 2.5, H 2.22
R21: W 2.46, N 1.83, M 1.71, Q 2.28, F 1.85, E 2.07, A 2.03, S 2.16, I 1.72, Y 2.14, G 1.84, C 2.12, T 2.62, L 1.67
G14: M 1.75, P 2.11, Y 1.48, S 1.97, R 3.17, L 2.54, V 1.58, C 2.27, I 1.87, K 1.79, Q 2.54, H 1.85, D 2.69
H19: N 2.23, G 1.63, C 2.14, A 2.14, T 1.59, K 2.33, D 2.21, R 1.75, F 1.64, I 2, W 1.66
L15: P 1.55, T 2.43, I 1.75, D 1.56, K 2.14, N 2.07, G 1.78, S 2.95, H 2.43, R 1.93, E 3.35, F 1.91, M 1.79, C 1.75
K11: M 1.94, Q 1.77, E 3.03, N 2.27, P 2.2, C 1.87, L 1.54, A 2.14, Y 1.77, R 1.27, F 1.92
F1: H 2.36, R 1.54, Y 2.02, W 2.16, A 2.11, L 1.62, I 1.91, T 2.28, C 2.65, Q 2.31, D 2.79, N 2.76, S 2.46, K 2.45
N3: F 1.96, R 2.13, T 1.23, K 1.41, Y 2.37, Q 1.96, V 1.27, D 2.02, E 2.05, G 2.17, I 1.5, C 2.56, M 2.23, P 2.57, A 1.56
T12: E 1.72, Q 2.39, Y 2.72, V 2.33, H 1.86, A 2.29, D 1.91, I 1.63, S 2.14, K 2, R 2.73, P 1.98, L 1.36, G 1.77, C 3.57
C20: Q 3.22, D 3.16, T 2.52, N 2.52, W 2.06, H 2.69, R 2.4, S 2.44, G 1.87, A 1.82, M 2.57, F 2.41, L 2.23
D9: N 1.77, S 2.02, K 1.33, R 2.24, I 1.94, E 1.95, M 1.25, H 2.05, F 1.7, L 1.6, A 1.98, G 1.73, C 1.53
C23: Q 2.3, M 2.6, D 2.82, N 2.57, R 2.09, W 1.75, T 2.34, L 2.81, I 1.93, A 2.18
T10: D 2.56, Q 1.91, H 2.13, V 2.04, A 1.48, M 2.16, F 2.52, N 2.04, R 2.06, G 1.89, I 2.31, P 2.28, W 2.48, E 2.39
R16: M 1.65, H 2.5, E 2.3, Q 1.94, T 2.55, A 1.45, S 2.21, N 2.1, K 2.89, I 1.43, L 1.79, V 1.88, W 1.14, G 1.64, Y 1.6, D 2.84, P 1.8
K22: E 1.6, V 1.41, A 1.59, F 3.26, H 1.44, M 1.03, Y 2.2, P 1.98, D 3.4, L 1.34, S 1.66, C 1.7
H18: V 2.02, L 2.31, Q 1.82, Y 2.08, C 3, D 2.92, G 2.39, W 2.06, T 3.16, S 2.58, I 2.01, R 2.21, P 2.63
G24: C 2.22, T 2.29, L 2.22, E 2.18, K 2.5, A 1.84, W 2.12, V 2.01, F 1.96, R 2.35, Q 2.21, H 2.13, D 2.15, I 2.11, N 2.09, M 1.85, P 1.88
I4: G 2.19, W 3.44, P 2.55, F 1.54, M 2.35, A 1.89, E 3.05, N 2.13, D 2.56, L 1.74, Y 1.9, H 2.56, C 2.67, V 2.52, S 1.95
L13: P 2.22, V 2.15, N 1.96, Q 2.02, C 2.57, W 2.01, H 2.22, R 2.29, I 2.26, E 2.56, F 2.2, S 2.37, Y 2.67, K 2.08, M 2, G 2.01
Q17: N 2.14, C 2.13, D 1.63, W 2.02, A 1.6, Y 1.98, R 2.75, P 2.13, V 1.68, I 1.81, T 2.12, S 2.05, H 1.83, E 2.56, F 1.88
